Numbered stars: 1 amine (or outer) side, 2 acyl side, 3 side chain; on linkers, the order of the positions; unused ones are H or OH. Bridge positions count the residues as written; N and C are the ends. Square brackets hold non-standard residues; d marks the D form. Ends that are not written are not given here. Phe(2,3-F2) = (2S)-3-(2,3-difluorophenyl)-2-aminopropanoic acid, O=C([C@H](Cc1cccc(F)c1F)N[*:1])[*:2]; X8 = (R)‑4‑Amino‑6‑methylheptanoic acid, CC(C)C[C@@H](CCC(=O)[*:2])N[*:1]; His(τ-Bzl) = N[C@@H](Cc1cn(Cc2ccccc2)cn1)C(=O)O; Oic = O=C(O)[C@@H]1C[C@@H]2CCCC[C@@H]2N1; tBuAla = CC(C)(C)C[C@H](N)C(=O)O; Pen = CC(C)(S)[C@H](N)C(=O)O; NMeA = CN[C@@H](C)C(=O)O; Orn = NCCC[C@H](N)C(=O)O; Nva = CCC[C@H](N)C(=O)O; Sar = CNCC(=O)O
T1: recombinant human MASP1 active protease (amino acids 297-699, C-terminal His Tag) (human, UniProt P48740 297-699)
T1 sequence: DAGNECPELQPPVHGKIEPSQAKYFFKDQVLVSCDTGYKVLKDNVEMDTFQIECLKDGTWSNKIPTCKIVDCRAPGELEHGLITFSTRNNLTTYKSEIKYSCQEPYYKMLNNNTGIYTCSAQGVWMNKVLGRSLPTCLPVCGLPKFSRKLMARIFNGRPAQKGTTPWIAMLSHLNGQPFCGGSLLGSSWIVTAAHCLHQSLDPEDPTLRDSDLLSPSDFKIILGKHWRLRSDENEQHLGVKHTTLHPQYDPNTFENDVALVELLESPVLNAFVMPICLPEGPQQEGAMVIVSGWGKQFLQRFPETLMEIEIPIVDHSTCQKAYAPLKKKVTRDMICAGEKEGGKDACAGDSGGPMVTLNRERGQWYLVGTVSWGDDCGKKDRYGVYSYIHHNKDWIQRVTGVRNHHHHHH

B1: Example 433: ((N-Me)G)-IC+SRS-((tBu)A)-PPI-(Pen)+IPD-((N-Me)G)-((N-Me)G)-((N-Me)G)-NH2 (peptide)
peptide: [Sar]ICSRS[tBuAla]PPI[Pen]IPD[Sar][Sar][Sar]-NH2
modifications: disulfide 3-11; N-terminus assumed
SMILES: CC[C@H](C)[C@H](NC(=O)CNC)C(=O)N[C@H]1CSSC(C)(C)[C@@H](C(=O)N[C@H](C(=O)N2CCC[C@H]2C(=O)N[C@@H](CC(=O)O)C(=O)N(C)CC(=O)N(C)CC(=O)N(C)CC(N)=O)[C@@H](C)CC)NC(=O)[C@H]([C@@H](C)CC)NC(=O)[C@@H]2CCCN2C(=O)[C@@H]2CCCN2C(=O)[C@H](CC(C)(C)C)NC(=O)[C@H](CO)NC(=O)[C@H](CCCNC(=N)N)NC(=O)[C@H](CO)NC1=O
B2: Example 450: ((N-Me)G)-IC+SRSLP-(Oic)-I-(Pen)+IP-((R)-4-Amino-6-methylheptanoic acid)-OH (peptide)
peptide: [Sar]ICSRSLP[Oic]I[Pen]IP[X8]-OH
modifications: disulfide 3-11; N-terminus assumed
SMILES: CC[C@H](C)[C@H](NC(=O)CNC)C(=O)N[C@H]1CSSC(C)(C)[C@@H](C(=O)N[C@H](C(=O)N2CCC[C@H]2C(=O)N[C@H](CCC(=O)O)CC(C)C)[C@@H](C)CC)NC(=O)[C@H]([C@@H](C)CC)NC(=O)[C@@H]2C[C@@H]3CCCC[C@@H]3N2C(=O)[C@@H]2CCCN2C(=O)[C@H](CC(C)C)NC(=O)[C@H](CO)NC(=O)[C@H](CCCNC(=N)N)NC(=O)[C@H](CO)NC1=O
B3: Example 441: ((N-Me)G)-IC+SRS-((2S)-3-(2,3-difluorophenyl)-2-aminopropanoic acid)-P-(Oic)-I-(Pen)+IP-NH2 (peptide)
peptide: [Sar]ICSRS[Phe(2,3-F2)]P[Oic]I[Pen]IP-NH2
modifications: disulfide 3-11; N-terminus assumed
SMILES: CC[C@H](C)[C@H](NC(=O)CNC)C(=O)N[C@H]1CSSC(C)(C)[C@@H](C(=O)N[C@H](C(=O)N2CCC[C@H]2C(N)=O)[C@@H](C)CC)NC(=O)[C@H]([C@@H](C)CC)NC(=O)[C@@H]2C[C@@H]3CCCC[C@@H]3N2C(=O)[C@@H]2CCCN2C(=O)[C@H](Cc2cccc(F)c2F)NC(=O)[C@H](CO)NC(=O)[C@H](CCCNC(=N)N)NC(=O)[C@H](CO)NC1=O
B4: Example 447: ((N-Me)G)-IC+SRS-((tBu)A)-PPI-(Pen)+IP-((1-Bn)H)-OH (peptide)
peptide: [Sar]ICSRS[tBuAla]PPI[Pen]IP[His(τ-Bzl)]-OH
modifications: disulfide 3-11; N-terminus assumed
SMILES: CC[C@H](C)[C@H](NC(=O)CNC)C(=O)N[C@H]1CSSC(C)(C)[C@@H](C(=O)N[C@H](C(=O)N2CCC[C@H]2C(=O)N[C@@H](Cc2cn(Cc3ccccc3)cn2)C(=O)O)[C@@H](C)CC)NC(=O)[C@H]([C@@H](C)CC)NC(=O)[C@@H]2CCCN2C(=O)[C@@H]2CCCN2C(=O)[C@H](CC(C)(C)C)NC(=O)[C@H](CO)NC(=O)[C@H](CCCNC(=N)N)NC(=O)[C@H](CO)NC1=O
B5: Example 430: ((N-Me)G)-IC+SRS-((tBu)A)-PPI-(Pen)+IP-(Orn)-(Orn)-(Orn)-NH2 (peptide)
peptide: [Sar]ICSRS[tBuAla]PPI[Pen]IP[Orn][Orn][Orn]-NH2
modifications: disulfide 3-11; N-terminus assumed
SMILES: CC[C@H](C)[C@H](NC(=O)CNC)C(=O)N[C@H]1CSSC(C)(C)[C@@H](C(=O)N[C@H](C(=O)N2CCC[C@H]2C(=O)N[C@@H](CCCN)C(=O)N[C@@H](CCCN)C(=O)N[C@@H](CCCN)C(N)=O)[C@@H](C)CC)NC(=O)[C@H]([C@@H](C)CC)NC(=O)[C@@H]2CCCN2C(=O)[C@@H]2CCCN2C(=O)[C@H](CC(C)(C)C)NC(=O)[C@H](CO)NC(=O)[C@H](CCCNC(=N)N)NC(=O)[C@H](CO)NC1=O
B6: Example 448: ((N-Me)G)-IC+RRS-((tBu)A)-PP-(Nva)-(Pen)+IP-NH2 (peptide)
peptide: [Sar]ICRRS[tBuAla]PP[Nva][Pen]IP-NH2
modifications: disulfide 3-11; N-terminus assumed
SMILES: CCC[C@@H]1NC(=O)[C@@H]2CCCN2C(=O)[C@@H]2CCCN2C(=O)[C@H](CC(C)(C)C)NC(=O)[C@H](CO)NC(=O)[C@H](CCCNC(=N)N)NC(=O)[C@H](CCCNC(=N)N)NC(=O)[C@@H](NC(=O)[C@@H](NC(=O)CNC)[C@@H](C)CC)CSSC(C)(C)[C@@H](C(=O)N[C@H](C(=O)N2CCC[C@H]2C(N)=O)[C@@H](C)CC)NC1=O

Each binder was assayed against T1, recombinant human MASP1 active protease … (assay: cell-based or functional assay).
B1 was tested, and the “human MASP1 IC50” value was 0.0017 µM.
B2 was tested, and the “human MASP1 IC50” value was 0.0058 µM.
For [Sar]ICSRSLP[Oic]I[Pen]IPP[(2S)‑3‑(Triazol-1-yl)‑2‑(amino)propanoic acid]-NH2 (disulfide 3-11), the “human MASP1 IC50” value was 0.0023 µM.
For B3, the “human MASP1 IC50” value was 0.065 µM.
With B4 the “human MASP1 IC50” value was 0.0047 µM.
For [NMeA]ICSRS[tBuAla]P[(3R,6R)‑1,1‑Difluoro‑5‑azaspiro(2.4)heptane‑6‑carboxylic acid (enantiomer 2)]I[Pen]IP-NH2 (disulfide 3-11), the “human MASP1 IC50” value was 0.003 µM.
With B5 the “human MASP1 IC50” value was 0.0014 µM.
With [Sar]ICSRSLP[Oic]I[Pen]IP[(2S)‑3‑(Triazol-1-yl)‑2‑(amino)propanoic acid]-NH2 (disulfide 3-11) [Example 437: ((N-Me)G)-IC+SRSLP-(Oic)-I-(Pen)+IP-((2S)-3-(Triazol-1-yl)-2-(amino)propanoic acid)-NH2] the “human MASP1 IC50” value was 0.0022 µM.
B6 was tested, and the “human MASP1 IC50” value was 0.44 µM.

Each binder was assayed against recombinant human MASP2 active protease (amino acids 297-686, C-terminal His Tag) (human, UniProt O00187 297-686) (assay: cell-based or functional assay).
recombinant human MASP2 active protease (amino acids 297-686, C-terminal His Tag), sequence (O00187 other isoform, or with tags, fused parts or gaps limits assumed): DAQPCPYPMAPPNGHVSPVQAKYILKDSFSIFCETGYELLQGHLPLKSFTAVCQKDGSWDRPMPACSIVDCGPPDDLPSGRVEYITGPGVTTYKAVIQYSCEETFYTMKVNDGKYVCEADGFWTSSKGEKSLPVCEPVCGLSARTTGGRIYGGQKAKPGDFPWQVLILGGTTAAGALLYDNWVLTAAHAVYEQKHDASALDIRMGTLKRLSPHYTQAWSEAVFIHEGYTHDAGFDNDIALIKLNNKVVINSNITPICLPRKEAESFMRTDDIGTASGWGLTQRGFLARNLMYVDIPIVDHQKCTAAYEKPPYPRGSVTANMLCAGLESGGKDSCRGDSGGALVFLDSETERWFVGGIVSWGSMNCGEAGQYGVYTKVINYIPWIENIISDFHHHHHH
In the case of B1, the “human MASP2 IC50” value is reported as 0.12 µM.
With B2 the “human MASP2 IC50” value was 0.23 µM.
In the case of [Sar]ICSRSLP[Oic]I[Pen]IPP[(2S)‑3‑(Triazol-1-yl)‑2‑(amino)propanoic acid]-NH2 (disulfide 3-11), the “human MASP2 IC50” value is reported as 0.044 µM.
With B3 the “human MASP2 IC50” value was 0.22 µM.
With B4 the “human MASP2 IC50” value was 0.0655 µM.
With [NMeA]ICSRS[tBuAla]P[(3R,6R)‑1,1‑Difluoro‑5‑azaspiro(2.4)heptane‑6‑carboxylic acid (enantiomer 2)]I[Pen]IP-NH2 (disulfide 3-11) the “human MASP2 IC50” value was 0.3 µM.
With B5 the “human MASP2 IC50” value was 0.091 µM.
In the case of [Sar]ICSRSLP[Oic]I[Pen]IP[(2S)‑3‑(Triazol-1-yl)‑2‑(amino)propanoic acid]-NH2 (disulfide 3-11) [Example 437: ((N-Me)G)-IC+SRSLP-(Oic)-I-(Pen)+IP-((2S)-3-(Triazol-1-yl)-2-(amino)propanoic acid)-NH2], the “human MASP2 IC50” value is reported as 0.076 µM.
In the case of B6, the “human MASP2 IC50” value is reported as 1 µM.

— US20210246166A1 (Bayer, published 2021)
